Data taken from US20140170153A1 (Novo Nordisk, published 2014).
Changes are numbered by the printed parent chain. Numbers in names are those of the source. Where “and” joins values, the source holds several entries; their conditions need not be identical. Equal entries are not always repeated. Blank lines part the entries; values can stand above or below the binder they belong to.

What was measured:
[1] = target: T1, human recombinant IL-21 (expressed in E. coli as the mature peptide); residues 30-162 of SEQ ID NO: 1 with an … (human, UniProt Q9HBE4 30-162); assay: cell-based or functional assay
[2] = target: T1, human recombinant IL-21 (expressed in …); assay: cell-based or functional assay; remark: listed apart in the source
[3] = target: T1, human recombinant IL-21 (expressed in …); assay: crystal structure, Areaimol (CCP4)
Method: IL-21 (expressed in E. coli as the mature peptide; residues 30-162 of SEQ ID NO: 1 with an added N-terminal Methionine residue), in PBS buffer, pH 7.4 (4 tablets in 2 liter of water, GIBCO Cat. No. 18912-014 Invitrogen Corporation), and anti-IL-21 Fabs (comprising light chains and heavy chains corresponding to WT or mutants of SEQ ID No. 9 and 10, respectively, see example 6 and 14) formulated in PBS buffer, pH 7.4, were mixed in a 1:1 molar ratio. Crystals were grown with the sitting drop-technique with volumes according to Table 7. Total drop sizes were 0.2 or 0.3 μl, depending on the mixing ratio. Crystals were prepared for cryo-freezing by transferring of 3 μl of a cryo-solution, containing 75% of the precipitant solution and 25% glycerol, to the drop containing the crystal. Soakings were allowed for about one minute. The crystals were then fished into a MiTeGen MicroLoop™, flash frozen in liquid N2 and kept at a temperature of 100 K during data collection by a cryogenic N2 gas stream. Crystallographic data were collected at beam-line BL911-3 (Ursby et al., 2004) at MAX-lab, Lund, Sweden, to resolutions indicated in Table 8. Space group determination, integration and scaling of the data were made with the XDS software package (Kabsch, 2010). For the crystal complexes between hIL-21 and Fab56, Fab57 or Fab60, respectively, the Fab35/hIL-21 crystal structure were used as starting models for rigid body refinements in the Refmac5 software (Murshudov et al., 2011) of the CCP4 crystallography software suite (Bailey, 1994). Rigid body refinements were then followed by restrained crystallographic refinements, using the software programs Refmac5 and by computer graphics inspection of the electron density maps, model corrections and building using the Coot software program (Emsley et al., 2010). The procedure was cycled until no further significant improvements could be made to the model. Table 10, 11 and 13.
Table 9 show the calculated (by the software Areaimol (Lee & Richards, 1971, Saff & Kuijlaars, 1997)), average areas excluded in pair-wise interactions for the hIL-21/Fab56, hIL-21/Fab57, hIL-21/Fab59 and hIL-21/Fab60 complexes, respectively.

[4] = target: T1, human recombinant IL-21 (expressed in …); assay: SPR Biacore T200, 25 C; mAb captured by anti-human Fc, IL-21 analyte, 1:1 Langmuir
Method: (§1) Experiments were run at 25° C. and the samples were stored at 10° C. in the sample compartment. The signal (RU, response units) reported by the Biacore is directly correlated to the mass on the individual sensor chip surfaces in four serial flow cells.
Anti-human Fc monoclonal antibody from Biacore human Fc capture kit was immobilized onto flow cells of a CM4 sensor chip according to the manufacturer's instructions. The final immobilization level of capture antibody was approximately 2,000 RU in one experiment. […] Capture of the human anti-IL-21 antibody mAb37 was conducted by diluting the antibody to 0.1 μg/ml into running buffer (10 mM Hepes 0.3 M NaCl, 5 mM CaCl2, 0.05% surfactant P20, pH 8.0 containing 1 mg/ml BSA) and injected at 10 μl/min for 180 s in one of flow cells 2-4, creating a reference surface in flow cell 1 with only anti-Fc antibody immobilized. […] Binding of IL-21 protein was conducted by injecting analyte over all flow cells to allow for comparative analyses of binding to different captured anti-IL-21 antibodies relative to binding to the reference flow cell. IL-21 protein was diluted serially 1:3 to 0.2-54 nM into running buffer, injected at 100 μl/min for 210 s and allowed to dissociate for 600 or 14000 s. The CM4 surface was regenerated after each injection cycle of analyte via two injections of 3M MgCl₂ at 50 μl/min. This regeneration step removed the anti-IL-21 antibody and any bound IL-21 from the immobilized capture antibody surface, and allowed for the subsequent binding of the next interaction sample pair. […] No significant non-specific binding to the reference control surface was observed.

[5] = target: T1, human recombinant IL-21 (expressed in …); assay: SPR Biacore T200, 25 C; mAb captured by anti-human Fc, hIL-21 analyte, 1:1 Langmuir; Exp 2
Method: (§2) Anti-human Fc monoclonal antibodies from Biacore human Fc capture kit was immobilized onto flow cells of a CM4 sensor chip according to the manufacturer's instructions. The final immobilization level of capture antibody was approximately 2,500 RU in one experiment. […] Binding of hIL-21 protein was conducted by injecting analyte over all flow cells to allow for comparative analyses of binding to different captured anti-IL-21 antibodies relative to binding to the reference flow cell. hIL-21 protein was diluted serially 1:3 to 2-162 nM into running buffer, injected at 100 μl/min for 210 s and allowed to dissociate for 600 or 14000 s. The CM4 surface was regenerated after each injection cycle of analyte via two injections of 3M MgCl₂ at 50 μl/min. This regeneration step removed the anti-IL-21 antibody and any bound IL-21 from the immobilized capture antibody surface, and allowed for the subsequent binding of the next interaction sample pair.
(§3) No significant non-specific binding to the reference control surface was observed. Binding curves were processed by double referencing (subtraction of reference surface signals as well as blank buffer injections over captured anti-IL-21 antibodies). This allowed correction for instrument noise, bulk shift and drift during sample injections.

[6] = target: T1, human recombinant IL-21 (expressed in …); assay: SPR Biacore T200, 25 C; mAb captured by anti-human Fc, IL-21 analyte, 1:1 Langmuir; remark: listed apart in the source
Method: as §1
Anti-human Fc monoclonal antibody from Biacore human Fc capture kit was immobilized onto flow cells of a CM4 sensor chip according to the manufacturer's instructions. The final immobilization level of capture antibody was approximately 2,000 RU in one experiment. […] Capture of the human anti-IL-21 antibody mAb37 was conducted by diluting the antibody to 0.1 μg/ml into running buffer (10 mM Hepes 0.3 M NaCl, 5 mM CaCl2, 0.05% surfactant P20, pH 8.0 containing 1 mg/ml BSA) and injected at 10 μl/min for 180 s in one of flow cells 2-4, creating a reference surface in flow cell 1 with only anti-Fc antibody immobilized. […] Binding of IL-21 protein was conducted by injecting analyte over all flow cells to allow for comparative analyses of binding to different captured anti-IL-21 antibodies relative to binding to the reference flow cell. IL-21 protein was diluted serially 1:3 to 0.2-54 nM into running buffer, injected at 100 μl/min for 210 s and allowed to dissociate for 600 or 14000 s. The CM4 surface was regenerated after each injection cycle of analyte via two injections of 3M MgCl₂ at 50 μl/min. […]

[7] = target: T1, human recombinant IL-21 (expressed in …); assay: SPR Biacore T200, calculated KD; Exp 1
Method: as §2, §3

[8] = target: T1, human recombinant IL-21 (expressed in …); assay: SPR Biacore T200, 25 C; mAb captured by anti-human Fc, hIL-21 analyte, 1:1 Langmuir; Exp 1
Method: as §2, §3

[9] = target: T1, human recombinant IL-21 (expressed in …); assay: SPR Biacore T200, calculated KD; Exp 2
Method: as §2, §3

[10] = target: T1, human recombinant IL-21 (expressed in …); assay: SPR Biacore T200; mAb captured by anti-human Fc, hIL-21 analyte
Method: as §2, §3

T1 sequence (Q9HBE4 other isoform, or with tags, fused parts or gaps): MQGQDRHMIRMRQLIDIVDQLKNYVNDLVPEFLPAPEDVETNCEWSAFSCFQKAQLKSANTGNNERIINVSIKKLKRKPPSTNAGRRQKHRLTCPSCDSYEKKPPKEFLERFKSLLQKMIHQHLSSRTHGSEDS

B3: Fab35 (Fab fragment of mAb14/mAb37) (Fab, V domains shown)
VH: EVQLVESGGGLVKPGGSLRLSCAASGFIFSSYSMNWVRQAPGKGLEWVSSITSGSYYIHYADSVKGRFTISRDNAKNSLYLQMNSLRAEDTAVYYCVRERGWGYYGMDVWGQGTTVTVSS
VL: AIQLTQSPSSLSASVGDRVTITCRASQDIDSALAWYQQKPGKAPKILIHDASSLESGVPSRFSGSGSGTDFTLTISSLQPEDFATYYCQQFNSYPYTFGQGTKLEIKR
notes: also called anti-IL-21 Fab35
Avr Area (average areas excluded in pairwise interactions) [3]: 1060 Å^2

B4: Fab57 (Fab35 with H: K65R; Fab fragment of mAb62) (Fab, V domains shown)
VH: B3 VH with K65R
VL: B3 VL
notes: also called aIL-21 Fab57
Avr Area (average areas excluded in pairwise interactions) [3]: 1070 Å^2

B5: Fab59 (Fab35 with L, Q27N mutation; Fab fragment of mAb64) (Fab, V domains shown)
VH: B3 VH
VL: B3 VL with Q27N
notes: also called aIL-21 Fab59
Avr Area (average areas excluded in pairwise interactions) [3]: 1170 Å^2

B6: Fab60 (Fab35 with L, D30E mutation; Fab fragment of mAb65) (Fab, V domains shown)
VH: B3 VH
VL: B3 VL with D30E
notes: also called aIL-21 Fab60
Avr Area (average areas excluded in pairwise interactions) [3]: 1100 Å^2

B7: Fab56 (Fab35 with H: D62E mutation; Fab fragment of mAb61) (Fab, V domains shown)
VH: B3 VH with D62E
VL: B3 VL
notes: also called aIL-21 Fab56
Avr Area (average areas excluded in pairwise interactions) [3]: 1070 Å^2

B8: mAb37 (hinge stabilized S241P version of mAb14) (antibody, human IgG4 S228P, kappa)
heavy: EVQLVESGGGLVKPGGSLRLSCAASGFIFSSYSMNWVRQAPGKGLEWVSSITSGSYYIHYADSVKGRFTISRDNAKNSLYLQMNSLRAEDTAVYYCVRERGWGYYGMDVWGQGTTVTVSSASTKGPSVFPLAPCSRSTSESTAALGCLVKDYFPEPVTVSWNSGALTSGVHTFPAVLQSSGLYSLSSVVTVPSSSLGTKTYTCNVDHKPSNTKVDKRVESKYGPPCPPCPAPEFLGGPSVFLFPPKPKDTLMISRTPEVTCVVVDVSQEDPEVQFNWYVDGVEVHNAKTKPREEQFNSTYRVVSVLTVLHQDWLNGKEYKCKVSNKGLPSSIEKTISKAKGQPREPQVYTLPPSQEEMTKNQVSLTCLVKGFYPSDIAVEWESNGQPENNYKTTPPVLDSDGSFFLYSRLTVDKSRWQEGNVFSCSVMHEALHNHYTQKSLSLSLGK
light: AIQLTQSPSSLSASVGDRVTITCRASQDIDSALAWYQQKPGKAPKILIHDASSLESGVPSRFSGSGSGTDFTLTISSLQPEDFATYYCQQFNSYPYTFGQGTKLEIKRTVAAPSVFIFPPSDEQLKSGTASVVCLLNNFYPREAKVQWKVDNALQSGNSQESVTEQDSKDSTYSLSSTLTLSKADYEKHKVYACEVTHQGLSSPVTKSFNRGEC
notes: Human IgG4(S241P), kappa; recombinant from HEK293-6E; also called WT mAb37
Kd [4]: 0.007 nM and 0.0075 nM and 0.011 nM
koff [4]: 4.5e-06 s⁻¹ and 6.4e-06 s⁻¹
kon [4]: 640000 M⁻¹ s⁻¹ and 600000 M⁻¹ s⁻¹
koff [5]: < 1e-05 s⁻¹
kon [5]: 660000 M⁻¹ s⁻¹ and 620000 M⁻¹ s⁻¹
Kd [6]: < 0.02 nM
Kd [7]: < 0.017 nM
koff [8]: < 1e-05 s⁻¹
kon [8]: 570000 M⁻¹ s⁻¹ and 590000 M⁻¹ s⁻¹ and 580000 M⁻¹ s⁻¹
IC50 (nM) in B cell proliferation assay, Donor 1 [1]: 0.14 nM
IC50 (nM) in B cell proliferation assay, Donor 2 [1]: 0.18 nM
Kd [9]: < 0.015 nM

Second part, the binder after the results:

IC50 (nM) in B cell proliferation assay, Donor 1 [1]: 0.16 nM
IC50 (nM) in B cell proliferation assay, Donor 2 [1]: 0.25 nM
Bioactivity as % of RM (mAb37), NK-92 assay (alamarBlue) [2]: 92.1 % of RM (mAb37)
B1: mAb63 (mAb37 variant, light chain R24K) (antibody, human IgG4 S228P, kappa, V domains shown)
VH: B3 VH
VL: B3 VL with R24K

IC50 (nM) in B cell proliferation assay, Donor 1 [1]: 0.8 nM
IC50 (nM) in B cell proliferation assay, Donor 2 [1]: 0.74 nM
Bioactivity as % of RM (mAb37), NK-92 assay (alamarBlue) [2]: 116 % of RM (mAb37)
B2: mAb64 (mAb37 variant, light chain Q27N) (antibody, human IgG4 S228P, kappa, V domains shown)
VH: B3 VH
VL: B3 VL with Q27N

Kd [10]: < 0.02 nM
koff [5]: < 1e-05 s⁻¹
kon [5]: 660000 M⁻¹ s⁻¹ and 670000 M⁻¹ s⁻¹
IC50 (nM) in B cell proliferation assay, Donor 1 [1]: 0.22 nM
IC50 (nM) in B cell proliferation assay, Donor 2 [1]: 0.21 nM
Bioactivity as % of RM (mAb37), NK-92 assay (alamarBlue) [2]: 86.2 % of RM (mAb37)
Kd [9]: < 0.015 nM
B9: mAb61 (mAb37 variant, heavy chain D62E) (antibody, human IgG4 S228P, kappa, V domains shown)
VH: B3 VH with D62E
VL: B3 VL
notes: Human IgG4(S241P), kappa

Kd [10]: < 0.02 nM
Kd [7]: < 0.019 nM
koff [8]: < 1e-05 s⁻¹
kon [8]: 520000 M⁻¹ s⁻¹ and 530000 M⁻¹ s⁻¹ and 540000 M⁻¹ s⁻¹
IC50 (nM) in B cell proliferation assay, Donor 1 [1]: 0.49 nM
IC50 (nM) in B cell proliferation assay, Donor 2 [1]: 0.19 nM
Bioactivity as % of RM (mAb37), NK-92 assay (alamarBlue) [2]: 96.8 % of RM (mAb37)
B10: mAb65 (mAb37 variant, light chain D30E) (antibody, human IgG4 S228P, kappa, V domains shown)
VH: B3 VH
VL: B3 VL with D30E
notes: Human IgG4(S241P), kappa

Kd [10]: < 0.02 nM
Kd [7]: < 0.017 nM
koff [8]: < 1e-05 s⁻¹
kon [8]: 560000 M⁻¹ s⁻¹ and 580000 M⁻¹ s⁻¹ and 600000 M⁻¹ s⁻¹
IC50 (nM) in B cell proliferation assay, Donor 2 [1]: 0.23 nM
Bioactivity as % of RM (mAb37), NK-92 assay (alamarBlue) [2]: 73.2 % of RM (mAb37)
B11: mAb62 (mAb37 variant, heavy chain K65R) (antibody, human IgG4 S228P, kappa, V domains shown)
VH: B3 VH with K65R
VL: B3 VL
notes: Human IgG4(S241P), kappa
